Test results: the nanobody polyreactivity screen of Harvey et al. (2022)

Test: yeast display, Sf9 membrane polyspecificity reagent, FACS + sequencing; frameworks hold sequencing errors
Procedure, shortened: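 Nanobodies from a synthetic yeast display library (Saccharomyces cerevisiae BJ5465), induced 36–48 hours with galactose, were stained 1 hour at 4 °C with 10% biotinylated, detergent-solubilized Sf9 membrane reagent, enriched on streptavidin microbeads, then FACS-sorted. Anti-HA (expression) and streptavidin (reagent binding) fluorescence set low and high (top ~1%) gates. Polyreactivity labels come from the gate of origin. Genes were colony-PCR amplified, MiSeq 2 × 250 sequenced and filtered by CDR length.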

| Sequence | polyreactivity (PSR sort gate) |
| --- | --- |
| QVQLVESGGGLVQAGGSLRLSCAASGLTFYHYAMGWYRQAPGKERELVADISSGGSTSYADSVKGRFTISRDNAKNTVYLQMNSLKPEDTAVFYCAADYTWERYHRQIFRLDYWGQGTQVTVSS | low polyreactivity |
| QVQLVESGGGLVQAGGSLRLSCAASGLTFYLYAMGWYRQAPGKERELVAAISSSGSSTYYADSVKGRFTISRDNAKHTVYLQMNSLKPEDTAVYYCAAVASRGWGRYGYWGQGTQVTVSS | high polyreactivity |
| QVQLVESGGGLVQAGGSLRLSCAASGLTFYLYAMGWYRQAPGKERELVAAITTSGGSTYYADSVKGRFTISRDNAKNTVYLQMNSLKPEDTAVYDCATQGAIRGYGYWGQGTQVTVSS | high polyreactivity |
| QVQLVESGGGLVQAGGSLRLSCAASGLTFYQYAMGWYRQAPGKERELVAAISKSAGSTYYADSVKGRFTISRDNAKNTVYLQMNSLKPEDTAVYYCNAARPFTRVPRQTWKMGYWGQGTQVTVSS | high polyreactivity |
| QVQLVESGGGLVQAGGSLRLSCAASGLTFYRYAMGWYRQAPGKERELVAAISFSGGSTYYADSVKGRFTISRDNAKNTVYLQMNSLKPEDTAVYYCAKVDTPGSQRYITPEEGPEYDYWGQGTQVTVSS | high polyreactivity |
| QVQLVESGGGLVQAGGSLRLSCAASGLTFYRYAMGWYRQAPGKERELVAAISSSGGSTYYADSVKGRFTISRDNAKNTVYLQMNSLKPEDTAVYYCAAKRVSVPYGYWGQGTQVTVSS | high polyreactivity |
| QVQLVESGGGLVQAGGSLRLSCAASGLTFYSYAMGWSRQAPGKERELVAAITSSGSITYYADSVKGRFTISRDNAKNTVYLQMNSLKPEDTAVYYCAARPYRVRGQRFEGNYWGQGTQVTVSS | high polyreactivity |
| QVQLVESGGGLVQAGGSLRLSCAASGLTFYSYAMGWYRQAPGKERELVAAITWSGGGTYYADSVKGRFTISRDNAKNTVYLQMNSLKPEDTAVYYCAALSYNGVRYYYWGQGTQVTVSS | high polyreactivity |
| QVQLVESGGGLVQAGGSLRLSCAASGLTFYSYAMGWYRQAPGKERELVAAITWSGGGTYYADSVKGRFTISRDNAKNTVYLQMNSLKPVDTADYYCAADYWGYDIYYGLTERESWGQGTQVTVSS | high polyreactivity |
| QVQLVESGGGLVQAGGSLRLSCAASGLTFYTYAMGWYIQAPGTERELVAAISSGGSTNYADSVKGRFTISRDNAKNTVYLQMNSLKPEDTAVYYCAADPSYYTYFSFDLSESDYWGQGTQVTVSS | low polyreactivity |
| QVQLVESGGGLVQAGGSLRLSCAASGLTFYTYAMGWYRQAPGKERELVAAISTNGGSTYYADSVKGRFTISRDNAKNTVYLQMNSLKPEDTAVYYCAKEGGTYRIFNYWGQGTQVTVSS | low polyreactivity |
| QVQLVESGGGLVQAGGSLRLSCAASGLTFYTYPMGWYRQAPGKERELVAAISSGGSTNYADSVKGRFTISRDNAKNTVYLQMNSLTPEDTAVYYCAADPSYFTYFSFDLSESDYWGKGTQVTVSS | low polyreactivity |
| QVQLVESGGGLVQAGGSLRLSCAASGLTFYVYAMGWYRQAPGKERELVAAISSGGRTYYADSVKGRFTISRDNAKNTVYLQMNSLKPEDTAVYYCAAVRHRNYGYWGQGTQVTVSS | high polyreactivity |
| QVQLVESGGGLVQAGGSLRLSCAASGLTFYYYAMGWYRQAPGKERELVAAISRSGGSTYYADSVKGRFTISRDNAKNTVYLQMNSLKPEDTAVYYCAAYGPASVYEVAMDYWGQGTQVTVSS | high polyreactivity |
| QVQLVESGGGLVQAGGSLRLSCAASGLTFYYYTMGWYRQAPGKERELVAAITSGGSTYYADSVKGRFTISRDNAKNTVYLQMNSLKPEDTAVYDCAAVPSRYGRYRYYYWGQGTQVTVSS | high polyreactivity |
| QVQLVESGGGLVQAGGSLRLSCAASGLTIITNAMGWYRQAPGKERELVAAISGTGGSTYYADSVKGRFTISRDNAKNTVYLQMNSLKPEDTAVYYCAAAPYTFWVGDSWGQGTQVTVSS | high polyreactivity |
| QVQLVESGGGLVQAGGSLRLSCAASGLTILDNAMGWYRQAPGKERELVATISGGGSTYYADSVKGRFTISRDNAKNTVYLQMNSLKPEDTAVYYWNAAYVGGPWWYRYTYNYWGQGTQVTVSS | low polyreactivity |
